± gives the standard deviation of the averaged measurements.
Test: total protein half-life in vivo (active degradation + dilution); higher = more stable protein
[1] = E. coli NCM3722 delta-clpP delta-lon delta-hslV, growth: N-lim chemostat, doubling time 6 h
[2] = E. coli NCM3722 delta-hslV, growth: N-lim chemostat, doubling time 6 h
[3] = E. coli NCM3722 delta-lon, growth: N-lim chemostat, doubling time 6 h
[4] = E. coli NCM3722 delta-smpB, growth: N-lim chemostat, doubling time 6 h
[5] = wild type E. coli NCM3722, growth: C-lim chemostat, doubling time 3 h
[6] = wild type E. coli NCM3722, growth: C-lim chemostat, doubling time 6 h
[7] = wild type E. coli NCM3722, growth: C-lim chemostat, doubling time 12 h
[8] = wild type E. coli NCM3722, growth: N-lim chemostat, doubling time 6 h
[9] = wild type E. coli NCM3722, growth: N-lim chemostat, doubling time 12 h
[10] = wild type E. coli NCM3722, growth: P-lim chemostat, doubling time 6 h
[11] = wild type E. coli NCM3722, growth: P-lim chemostat, doubling time 12 h
[12] = E. coli NCM3722 delta-clpP, growth: N-lim chemostat, doubling time 6 h

Row | Sequence | total protein half-life in vivo [1] [h] | total protein half-life in vivo [2] [h] | total protein half-life in vivo [3] [h] | total protein half-life in vivo [4] [h] | total protein half-life in vivo [5] [h] | total protein half-life in vivo [6] [h] | total protein half-life in vivo [7] [h] | total protein half-life in vivo [8] [h] | total protein half-life in vivo [9] [h] | total protein half-life in vivo [10] [h] | total protein half-life in vivo [11] [h] | total protein half-life in vivo [12] [h]
1 | MATIKDVARLAGVSVATVSRVINNSPKASEASRLAVHSAMESLSYHPNANARALAQQTTETVGLVVGDVSDPFFGAMVKAVEQVAYHTGNFLLIGNGYHNEQKERQAIEQLIRHRCAALVVHAKMIPDADLASLMKQMPGMVLINRILPGFENRCIALDDRYGAWLATRHLIQQGHTRIGYLCSNHSISDAEDRLQGYYDALAESGIAANDRLVTFGEPDESGGEQAMTELLGRGRNFTAVACYNDSMAAGAMGVLNDNGIDVPGEISLIGFDDVLVSRYVRPRLTTVRYPIVTMATQAAELALALADNRPLPEITNVFSPTLVRRHSVSTPSLEASHHATSD | 5.91 ± 1.8 | 3.24 ± 0.35 | 2.72 ± 0.32 | 2.572 ± 0.0072 | 2.29 ± 0.2 | 4.35 ± 0.17 | 7.06 ± 0.13 | 2.8 ± 0.21 | 3.77 ± 0.39 | 3.26 ± 0.047 | 6.28 ± 0.3 | –
2 | MATLTTTQTSPSLLGGVVIIGGTIIGAGMFSLPVVMSGAWFFWSMAALIFTWFCMLHSGLMILEANLNYRIGSSFDTITKDLLGKGWNVVNGISIAFVLYILTYAYISASGSILHHTFAEMSLNVPARAAGFGFALLVAFVVWLSTKAVSRMTAIVLGAKVITFFLTFGSLLGHVQPATLFNVAESNASYAPYLLMTLPFCLASFGYHGNVPSLMKYYGKDPKTIVKCLVYGTLMALALYTIWLLATMGNIPRPEFIGIAEKGGNIDVLVQALSGVLNSRSLDLLLVVFSNFAVASSFLGVTLGLFDYLADLFGFDDSAVGRLKTALLTFAPPVVGGLLFPNGFLYAIGYAGLAATIWAAIVPALLARASRKRFGSPKFRVWGGKPMIALILVFGVGNALVHILSSFNLLPVYQ [P0AAD2] | 2.1 | 0.779 | – | 0.897 | 1.97 ± 0.16 | – | – | – | – | – | – | –
3 | MATRIEFHKHGGPEVLQAVEFTPADPAENEIQVENKAIGINFIDTYIRSGLYPPPSLPSGLGTEAAGIVSKVGSGVKHIKAGDRVVYAQSALGAYSSVHNIIADKAAILPAAISFEQAAASFLKGLTVYYLLRKTYEIKPDEQFLFHAAAGGVGLIACQWAKALGAKLIGTVGTAQKAQSALKAGAWQVINYREEDLVERLKEITGGKKVRVVYDSVGRDTWERSLDCLQRRGLMVSFGNSSGAVTGVNLGILNQKGSLYVTRPSLQGYITTREELTEASNELFSLIASGVIKVDVAEQQKYPLKDAQRAHEILESRATQGSSLLIP | 6.37 ± 0.98 | 5.73 ± 0.15 | 5.78 ± 0.78 | 5.28 ± 0.14 | 3.13 ± 0.2 | 5.98 ± 0.24 | 9.65 ± 0.38 | 5.5 ± 0.41 | 10.2 ± 0.47 | 5.84 ± 0.14 | 12.63 ± 0.043 | 5.12 ± 0.23
4 | MATVNKQAIAAAFGRAAAHYEQHADLQRQSADALLAMLPQRKYTHVLDAGCGPGWMSRHWRERHAQVTALDLSPPMLVQARQKDAADHYLAGDIESLPLATATFDLAWSNLAVQWCGNLSTALRELYRVVRPKGVVAFTTLVQGSLPELHQAWQAVDERPHANRFLPPDEIEQSLNGVHYQHHIQPITLWFDDALSAMRSLKGIGATHLHEGRDPRILTRSQLQRLQLAWPQQQGRYPLTYHLFLGVIARE | 4.79 ± 0.22 | – | – | 0.556 | – | – | – | – | 1.13 | – | – | 2.85 ± 0.37
5 | MATYYSNDFRAGLKIMLDGEPYAVEASEFVKPGKGQAFARVKLRRLLTGTRVEKTFKSTDSAEGADVVDMNLTYLYNDGEFWHFMNNETFEQLSADAKAIGDNAKWLLDQAECIVTLWNGQPISVTPPNFVELEIVDTDPGLKGDTAGTGGKPATLSTGAVVKVPLFVQIGEVIKVDTRSGEYVSRVK [P0A6N4] | – | 4.41 ± 0.21 | 5.35 ± 0.54 | 4.285 ± 0.022 | 2.91 ± 0.13 | 4.775 ± 0.023 | 8.29 ± 0.57 | 4.24 ± 0.074 | 5.76 ± 0.19 | 4.32 ± 0.1 | 8.07 ± 0.47 | 4.46 ± 0.85
6 | MAVHLLIVDALNLIRRIHAVQGSPCVETCQHALDQLIMHSQPTHAVAVFDDENRSSGWRHQRLPDYKAGRPPMPEELHDEMPALRAAFEQRGVPCWSTSGNEADDLAATLAVKVTQAGHQATIVSTDKGYCQLLSPTLRIRDYFQKRWLDAPFIDKEFGVQPQQLPDYWGLAGISSSKVPGVAGIGPKSATQLLVEFQSLEGIYENLDAVAEKWRKKLETHKEMAFLCRDIARLQTDLHIDGNLQQLRLVR | 4.94 ± 0.096 | 4.29 | 5.14 ± 0.59 | 3.86 ± 0.59 | 2.66 ± 0.54 | – | 10.7 ± 0.93 | 4.2 ± 0.5 | 8.02 | 5.06 ± 0.52 | 10.7 ± 1.7 | 4.23 ± 0.28
7 | MAVNLLKKNSLALVASLLLAGHVQATELLNSSYDVSRELFAALNPPFEQQWAKDNGGDKLTIKQSHAGSSKQALAILQGLKADVVTYNQVTDVQILHDKGKLIPADWQSRLPNNSSPFYSTMGFLVRKGNPKNIHDWNDLVRSDVKLIFPNPKTSGNARYTYLAAWGAADKADGGDKGKTEQFMTQFLKNVEVFDTGGRGATTTFAERGLGDVLISFESEVNNIRKQYEAQGFEVVIPKTNILAEFPVAWVDKNVQANGTEKAAKAYLNWLYSPQAQTIITDYYYRVNNPEVMDKLKDKFPQTELFRVEDKFGSWPEVMKTHFTSGGELDKLLAAGRN | 4.09 ± 0.2 | 6.24 ± 0.08 | 6.861 ± 0.011 | 5.74 ± 0.07 | 3.3 ± 0.27 | 6.1057 ± 0.00027 | 10 ± 0.37 | 6.338 ± 0.056 | 12.8 ± 0.46 | 6.18 ± 0.1 | 12.4 ± 0.31 | 5.26 ± 0.17

— the supplement of paper PMC11246515
